Results: paper PMC6028098, “The N-terminal region of photocleavable peptides that bind HLA-DR1 determines the kinetics of fragment release” (PLoS ONE, 2018)

Biological target: HLA-DR1 (DRA*01:01/DRB1*01:01) extracellular domain (human)
Experiment: fluorescence polarisation

In the case of “Ac-photoHAΔ1–2 photocleavable peptide (Ac-YVKxNTLRLAT)”, the IC50 is reported as 227 nM.
“photoHA photocleavable peptide (PRYVKxNTLRLAT)” gave an IC50 of 92 nM.
“HA peptide (unlabeled, non-photocleavable), HA306-318-derived” showed an IC50 of 40 nM.
“Ac-photoHA photocleavable peptide (Ac-PRYVKxNTLRLAT)” gave an IC50 of 134 nM.
“photoHAΔ1–2 photocleavable peptide (YVKxNTLRLAT)” showed an IC50 of 1040 nM.
